Holding throughout (assay): cell-based or functional assay
In assay [1] the target is human GLP-1 receptor (human, UniProt P43220 24-463).
The target in assay [2] is human GCG receptor (human, UniProt P47871 26-477).
For assay [3], the target named is T1, human GIP receptor (human, UniProt P48546 22-466).
T1 sequence (looked up): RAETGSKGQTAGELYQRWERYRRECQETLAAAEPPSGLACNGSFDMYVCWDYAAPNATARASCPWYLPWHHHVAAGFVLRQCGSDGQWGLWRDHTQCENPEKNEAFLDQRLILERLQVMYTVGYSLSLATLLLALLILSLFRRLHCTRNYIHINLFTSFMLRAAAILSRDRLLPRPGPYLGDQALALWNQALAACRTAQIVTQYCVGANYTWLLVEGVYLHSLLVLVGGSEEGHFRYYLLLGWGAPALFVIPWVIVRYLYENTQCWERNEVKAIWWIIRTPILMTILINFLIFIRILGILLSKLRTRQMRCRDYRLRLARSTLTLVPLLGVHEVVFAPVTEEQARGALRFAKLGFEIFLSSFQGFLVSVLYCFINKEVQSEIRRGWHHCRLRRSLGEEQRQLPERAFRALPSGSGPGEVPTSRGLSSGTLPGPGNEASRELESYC

Bridge positions count the residues as written; N and C are the ends. Square brackets hold non-standard residues; d marks the D form. Ends that are not written are not given here. Aib = CC(C)(N)C(=O)O A value given as a limit tells only on which side of the number the result lay.

human GCG receptor, sequence (P47871 26-477): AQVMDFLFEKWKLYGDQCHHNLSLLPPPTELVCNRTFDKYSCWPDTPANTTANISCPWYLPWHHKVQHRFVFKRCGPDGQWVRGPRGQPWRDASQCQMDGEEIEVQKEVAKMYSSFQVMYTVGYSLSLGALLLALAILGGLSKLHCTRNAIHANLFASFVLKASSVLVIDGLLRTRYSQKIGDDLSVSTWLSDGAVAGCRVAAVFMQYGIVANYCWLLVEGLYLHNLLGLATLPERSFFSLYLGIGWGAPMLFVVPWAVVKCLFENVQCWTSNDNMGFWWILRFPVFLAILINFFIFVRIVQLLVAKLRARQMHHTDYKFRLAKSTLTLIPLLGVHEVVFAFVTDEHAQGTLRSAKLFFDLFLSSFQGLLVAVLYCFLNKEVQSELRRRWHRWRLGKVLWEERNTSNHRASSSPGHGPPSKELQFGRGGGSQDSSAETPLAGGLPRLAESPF

B1: triple agonist of SEQ ID NO: 31 (peptide)
peptide: H[Aib]QGTFTSDYSKYLDEKACKEFVQWLLAQ
modifications: bridge 16-20
As for B1, the “In vitro activity compared with native peptide (%) vs GLP-1 (cAMP EC50)” value (from here on “In vitro activity … (%) vs GLP-1 (cAMP EC50)”) in assay [1] stood at 135%. Also, in assay [2], the “In vitro activity compared with native peptide (%) vs Glucagon (cAMP EC50)” value (shortened to “In vitro activity … (%) vs Glucagon (cAMP EC50)”) was determined as 2.2%. Besides, the “In vitro activity compared with native peptide (%) vs GIP (cAMP EC50)” value (shortened to “In vitro activity … (%) vs GIP (cAMP EC50)”) in assay [3] worked out at 2.4%.

B2: triple agonist of SEQ ID NO: 28 (peptide)
peptide: H[Aib]QGTFTSDYSKYLDEKRAQEFVCWLLAQKGKKNDWKHNIT
B2: the “In vitro activity … (%) vs GLP-1 (cAMP EC50)” value in assay [1] came to 17.2%. Besides, the “In vitro activity … (%) vs Glucagon (cAMP EC50)” value in assay [2] was 1.6%. For the same molecule, the “In vitro activity … (%) vs GIP (cAMP EC50)” value in assay [3] was under 0.1%.

B3: triple agonist of SEQ ID NO: 27 (peptide)
peptide: H[Aib]QGTFTSDYSKYLDERACQDFVQWLLDQGGPSSGAPPPS
Consider B3, for which, in assay [1], the “In vitro activity … (%) vs GLP-1 (cAMP EC50)” value turned out to be 83.1%. Moreover, the “In vitro activity … (%) vs Glucagon (cAMP EC50)” value in assay [2] came out at 0.8%. In addition, in assay [3], the “In vitro activity … (%) vs GIP (cAMP EC50)” value stood at 0.9%.

B4: triple agonist of SEQ ID NO: 29 (peptide)
peptide: H[Aib]QGTFTSDYSKYLDEKAAKEFVQWLLNTC
modifications: bridge 16-20
Take B4: the “In vitro activity … (%) vs GLP-1 (cAMP EC50)” value in assay [1] worked out at 38.5%. Further, in assay [2], the “In vitro activity … (%) vs Glucagon (cAMP EC50)” value came to 6%. Further, in assay [3], the “In vitro activity … (%) vs GIP (cAMP EC50)” value is under 0.1%.

B5: triple agonist of SEQ ID NO: 33 (peptide)
peptide: H[Aib]QGTFTSDYSIAMDEIHQKDFVNWLLAQKC
modifications: bridge 16-20
For the molecule B5, in assay [1], the “In vitro activity … (%) vs GLP-1 (cAMP EC50)” value stood at 24.5%. In addition, the “In vitro activity … (%) vs Glucagon (cAMP EC50)” value in assay [2] was under 0.1%. Further, in assay [3], the “In vitro activity … (%) vs GIP (cAMP EC50)” value was determined as 10.4%.

B6: triple agonist of SEQ ID NO: 30 (peptide)
peptide: H[Aib]QGTFTSDYSKYLDEKAQKEFVQWLLDTC
modifications: bridge 16-20
Take B6: the “In vitro activity … (%) vs GLP-1 (cAMP EC50)” value in assay [1] came to 142%. In addition, the “In vitro activity … (%) vs Glucagon (cAMP EC50)” value in assay [2] is 0.7%. Also, the “In vitro activity … (%) vs GIP (cAMP EC50)” value in assay [3] was determined as 0.8%.

B7: triple agonist of SEQ ID NO: 32 (peptide)
peptide: H[Aib]QGTFTSDYSKYLDEKACKDFVQWLLDGGPSSGAPPPS
modifications: bridge 16-20
As to B7, the “In vitro activity … (%) vs GLP-1 (cAMP EC50)” value in assay [1] came to 151%. Moreover, the “In vitro activity … (%) vs Glucagon (cAMP EC50)” value in assay [2] was 1.7%. Further, the “In vitro activity … (%) vs GIP (cAMP EC50)” value in assay [3] turned out to be 8.8%.

The values above are taken from patent US20240293512A1 (HANMI PHARM, published 2024).
